This experiment has as its target myc tagged version of gp96 (UniProt P14625). Briefly: pull-down; gp96-myc held on anti-myc agarose beads (Pierce c-Myc Tag IP/Co-IP kit); mixed with 10^8 DRP of purified BAAV or AAV4 vector; 4 °C for 1 h; extensive washes with TBS-T in spin columns; bound vector DNA quantified by qPCR; fold change relative to vector bound to GFP beads; n = 3.
Sequence of UniProt P14625 (P14625 22-803): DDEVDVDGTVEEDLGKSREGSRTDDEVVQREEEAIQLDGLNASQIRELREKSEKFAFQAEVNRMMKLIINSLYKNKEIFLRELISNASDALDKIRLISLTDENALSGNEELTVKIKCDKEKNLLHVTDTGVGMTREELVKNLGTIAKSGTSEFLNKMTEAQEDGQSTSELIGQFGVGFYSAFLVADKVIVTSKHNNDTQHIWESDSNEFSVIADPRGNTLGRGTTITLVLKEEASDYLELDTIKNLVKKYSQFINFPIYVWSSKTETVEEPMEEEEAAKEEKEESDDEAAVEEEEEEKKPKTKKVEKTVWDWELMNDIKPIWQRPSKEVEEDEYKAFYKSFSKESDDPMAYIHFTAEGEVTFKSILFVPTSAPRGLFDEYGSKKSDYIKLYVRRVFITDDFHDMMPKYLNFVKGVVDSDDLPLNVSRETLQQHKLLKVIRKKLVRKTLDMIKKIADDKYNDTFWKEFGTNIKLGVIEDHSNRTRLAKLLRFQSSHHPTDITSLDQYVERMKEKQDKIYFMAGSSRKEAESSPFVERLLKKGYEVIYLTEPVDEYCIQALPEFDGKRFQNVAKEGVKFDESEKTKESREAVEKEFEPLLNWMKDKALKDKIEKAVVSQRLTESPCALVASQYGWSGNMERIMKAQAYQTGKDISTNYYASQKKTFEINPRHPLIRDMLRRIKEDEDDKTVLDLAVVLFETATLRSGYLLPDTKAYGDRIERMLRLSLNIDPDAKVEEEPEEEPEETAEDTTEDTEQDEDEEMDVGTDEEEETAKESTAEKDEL

Substance “recombinant bovine adeno-associated virus (BAAV) vector particles containing the CMV-GFP expression cassette (complex)” displayed a fold increase in bound vector against control GFP or TRPC1 beads of 2 to 3 fold.

The values are drawn from paper PMC2834734.
